One block for each substance: values may come before it.
Tests used:
[1] = target: microtubules polymerised from porcine brain tubulin (porcine) (UniProt P02550); assay: co-sedimentation; as a5, but DCLK1 pre-incubated with 2 mM ATP at 25°C for 30 min
[2] = target: microtubules polymerised from porcine brain tubulin (porcine) (UniProt P02550); assay: TIRF microscopy (sfGFP fluorescence intensity on immobilised microtubules); as a3, but DCLK1 pre-incubated with 2 mM ATP for 30 min at 25°C
[3] = target: microtubules polymerised from porcine brain tubulin (porcine) (UniProt P02550); assay: co-sedimentation; 500 nM sfGFP-DCLK1 with 2 μM taxol-stabilized microtubules, 25°C 20 min, pelleted at 90,000 xg; 50 mM Tris pH 8, 150 mM K acetate, 2 mM Mg acetate, 1 mM EGTA, 10% glycerol; DCLK1 pre-incubated 30 min without ATP
[4] = target: microtubules polymerised from porcine brain tubulin (porcine) (UniProt P02550); assay: TIRF microscopy (sfGFP fluorescence intensity on immobilised microtubules); non-stabilized GDP microtubules grown from GMPCPP seeds fixed to the coverslip; 10 nM DCLK1 with 10 uM tubulin and 2 mM GTP in BRB80-based assay buffer; DCLK1 pre-incubated 30 min at 25°C without ATP
[5] = target: microtubules polymerised from porcine brain tubulin (porcine) (UniProt P02550); assay: TIRF microscopy (sfGFP fluorescence intensity on immobilised microtubules); taxol-stabilized microtubules immobilised on the glass surface, sfGFP-DCLK1 flowed in; no ATP; 60 mM HEPES pH 7.4, 50 mM K acetate, 2 mM Mg acetate, 1 mM EGTA, 10% glycerol, biotin-BSA, Pluronic, κ-casein, 10 μM …; KD from a one-site-binding hyperbola fit of intensity against concentration
[6] = target: microtubules polymerised from porcine brain tubulin (porcine) (UniProt P02550); assay: TIRF microscopy (sfGFP fluorescence intensity on immobilised microtubules); as a1, but DCLK1 incubated with 2 mM ATP for 30 min at 25°C before it was flowed onto immobilised taxol-stabilized microtubules; KD from a one-site-binding hyperbola fit

Sequence of microtubules polymerised from porcine brain tubulin (porcine) (P02550 whole entry, chain 1 of 2): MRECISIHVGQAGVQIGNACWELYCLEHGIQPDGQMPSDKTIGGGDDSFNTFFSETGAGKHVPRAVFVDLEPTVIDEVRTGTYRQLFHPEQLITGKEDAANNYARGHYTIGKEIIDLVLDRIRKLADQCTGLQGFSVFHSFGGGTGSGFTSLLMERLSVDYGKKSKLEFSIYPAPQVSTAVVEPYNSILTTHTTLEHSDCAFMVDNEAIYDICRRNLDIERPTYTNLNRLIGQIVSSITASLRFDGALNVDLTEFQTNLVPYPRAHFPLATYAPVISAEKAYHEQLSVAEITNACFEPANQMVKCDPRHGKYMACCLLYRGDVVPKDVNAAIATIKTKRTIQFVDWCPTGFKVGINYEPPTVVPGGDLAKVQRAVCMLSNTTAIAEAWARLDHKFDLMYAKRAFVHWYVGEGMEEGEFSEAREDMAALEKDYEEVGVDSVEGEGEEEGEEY
Sequence of microtubules polymerised from porcine brain tubulin (porcine) (P02554 whole entry, chain 2 of 2, further chain): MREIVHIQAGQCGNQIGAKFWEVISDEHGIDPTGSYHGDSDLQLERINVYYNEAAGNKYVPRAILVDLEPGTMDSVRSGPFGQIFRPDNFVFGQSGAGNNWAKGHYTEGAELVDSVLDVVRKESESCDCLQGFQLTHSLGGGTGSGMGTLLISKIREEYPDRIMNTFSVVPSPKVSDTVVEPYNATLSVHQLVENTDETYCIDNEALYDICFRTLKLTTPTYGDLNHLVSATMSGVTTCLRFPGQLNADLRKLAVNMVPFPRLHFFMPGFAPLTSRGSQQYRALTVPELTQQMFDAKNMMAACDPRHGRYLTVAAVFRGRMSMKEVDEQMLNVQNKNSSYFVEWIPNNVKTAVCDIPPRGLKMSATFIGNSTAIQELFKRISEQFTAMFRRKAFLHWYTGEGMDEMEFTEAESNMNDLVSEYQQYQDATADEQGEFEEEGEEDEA

Substance: sfGFP-DCLK1 wild type (mouse, aa 1-740), co-expressed with lambda phosphatase, not incubated with ATP (natural protein)
percent of DCLK1 that co-pelleted with microtubules [3]: 99.3% | microtubule-bound fluorescence intensity at 10 nM [4]: 15000

Substance: sfGFP-DCLK1 wild type (mouse, aa 1-740), treated with lambda phosphatase after purification (natural protein)
microtubule-bound fluorescence intensity at 3 nM [5]: 15100 | microtubule-bound fluorescence intensity at 25 nM [5]: 18200

Substance: sfGFP-DCLK1-D511N (kinase-dead, mouse, full length) (natural protein)
microtubule-bound fluorescence intensity at 3 nM [5]: 9070 | microtubule-bound fluorescence intensity at 25 nM [5]: 19700

Substance: sfGFP-DCLK1-T688A (mouse, full length), co-expressed with lambda phosphatase, not incubated with ATP (natural protein)
percent of DCLK1 that co-pelleted with microtubules [3]: 98.9%

Substance: sfGFP-DCLK1-ΔC (mouse, aa 1-648), treated with lambda phosphatase after purification (domain or fragment)
microtubule-bound fluorescence intensity at 3 nM [5]: 12000 | microtubule-bound fluorescence intensity at 25 nM [5]: 21200

Substance: sfGFP-DCLK1-ΔC DC1-4A (S77, S83, S96, T143 to alanine), co-expressed with lambda phosphatase, incubated with ATP (domain or fragment)
microtubule-bound fluorescence intensity at 5 nM [6]: 4040 | microtubule-bound fluorescence intensity at 20 nM [6]: 12600

Substance: sfGFP-DCLK1-ΔC DC2-4A (T189, S193, T218, S228 to alanine), co-expressed with lambda phosphatase, incubated with ATP (domain or fragment)
microtubule-bound fluorescence intensity at 5 nM [6]: 2480 | microtubule-bound fluorescence intensity at 20 nM [6]: 3500

Continued, values first:

percent of DCLK1 that co-pelleted with microtubules [1]: 86.2% | microtubule-bound fluorescence intensity at 10 nM [2]: 12500
Substance: sfGFP-DCLK1 wild type (mouse, aa 1-740), co-expressed with lambda phosphatase, autophosphorylated by 30 min with 2 mM ATP (natural protein)

microtubule-bound fluorescence intensity at 3 nM [5]: 2750 | microtubule-bound fluorescence intensity at 25 nM [5]: 16100
Substance: sfGFP-DCLK1 wild type (mouse, aa 1-740), expressed in bacteria under standard conditions (natural protein)

percent of DCLK1 that co-pelleted with microtubules [1]: 7.9%
Substance: sfGFP-DCLK1-T688A (mouse, full length), co-expressed with lambda phosphatase, incubated 30 min with 2 mM ATP (natural protein)

percent of DCLK1 that co-pelleted with microtubules [1]: 6.9% | microtubule-bound fluorescence intensity at 10 nM [2]: 1580 | microtubule-bound fluorescence intensity at 5 nM [6]: 988 | microtubule-bound fluorescence intensity at 20 nM [6]: 1580
Substance: sfGFP-DCLK1-ΔC (mouse, aa 1-648), co-expressed with lambda phosphatase, hyperphosphorylated by 30 min with 2 mM ATP (domain or fragment)

percent of DCLK1 that co-pelleted with microtubules [3]: 96.3% | microtubule-bound fluorescence intensity at 10 nM [4]: 12100 | microtubule-bound fluorescence intensity at 5 nM [5]: 12900 | microtubule-bound fluorescence intensity at 20 nM [5]: 23600
Substance: sfGFP-DCLK1-ΔC (mouse, aa 1-648), co-expressed with lambda phosphatase, not incubated with ATP (domain or fragment)

microtubule-bound fluorescence intensity at 5 nM [5]: 12200 | microtubule-bound fluorescence intensity at 20 nM [5]: 22300
Substance: sfGFP-DCLK1-ΔC DC1-4A (S77, S83, S96, T143 to alanine), co-expressed with lambda phosphatase, not incubated with ATP (domain or fragment)

microtubule-bound fluorescence intensity at 5 nM [5]: 8550 | microtubule-bound fluorescence intensity at 20 nM [5]: 19900
Substance: sfGFP-DCLK1-ΔC DC2-4A (T189, S193, T218, S228 to alanine), co-expressed with lambda phosphatase, not incubated with ATP (domain or fragment)

— publication PMC8352597
